The source of these data is patent US12699101B2, “Maximizing hydrophobic peptide recovery using a mass spectrometry compatible surfactant” (Regeneron Pharmaceuticals, Inc., priority 2022, dated 2026).

A short description of this data set: PRM target quantification of synthetic mAb peptide standards diluted with DDM, FA or cell digest matrix. It is filed as physicochemical. The settings on record: 10 fmol/μl peptide mixture, triplicate; for Ratio of Average Peak Area DDM Diluted/FA Diluted: 0.015% DDM vs 0.1% FA (control); for Ratio of Average Peak Area Matrix Diluted/FA Diluted: complex HeLa cell lysate digest matrix vs 0.1% FA (control). Here is the method:
HeLa cell lysate protein digests were diluted to 0.05 ng/μL by 0.1% FA or 0.015% DDM solution, and 0.2 ng (4 μL) was injected onto the LC-MS to simulate single cell sample analysis. Sixteen synthetic peptides from a mAb's constant region and CDR were diluted and mixed to a final concentration of 10 fmol/μL by 0.1% FA, 0.015% DDM solution or complex cell digest matrix. In reconstitution experiments, 20 μL of 500 fmol/μL BSA digests and 200 ng/μL HeLa digests were aliquoted into vials and dried in vacuo. Dried samples were reconstituted by 0.1% FA or 0.015% DDM solution. One picomole BSA digests and 100 ng HeLa digests were loaded onto the column for nanoLC-MS/MS analysis.
PRM target quantification was performed on an Orbitrap Exploris 480 mass spectrometer equipped with an UltiMate 3000 RSLCnano system and 75 μm ID×25 cm C18 column (CoAnn Technologies, 360 μm OD). A short gradient with a flow rate of 0.3 μL/min was set up as follows: 5% B at 0 min, 8% B at 3 min, 40% B at 20 min, and 95% B from 30-35 min. The m/z of the most intense surrogate peptide peak was selected for PRM analysis with 5 minutes windows. MS/MS spectra were acquired using HCD with a normalized collision energy of 30% at a resolution of 30K (m/z 200) and a maximum injection time of 100 ms.
Database searches for protein identification were performed using SEQUEST and Mascot embedded into Proteome Discoverer 2.2 (Thermo Fisher Scientific). The human UniProt target-decoy protein database including common contaminants was used for HeLa sample database searches. Precursor ion mass tolerance was set to 20 ppm and fragment ion mass tolerance was set to 0.02 Da. Trypsin was specified as the digestion enzyme during the database search with one missed cleavage allowed. Methionine oxidation (+16 Da) was selected as a variable modification and cysteine carbamidomethylation was chosen as a fixed modification for the normal (alkylated) digests. False discovery rates (FDRs) were set to 1% for peptide identification and 5% for protein identification. Peptide mapping and BSA sample data were analyzed using Protein Metrics Byonic™ (version 3.11.3) by searching the raw files against the mAb or BSA protein sequence. All peptide quantification was executed using Skyline Daily software (University of Washington, WA) by extracting the MS' peak area of all detected charge states. The three most intense fragment peaks free of interference were selected for PRM target quantification. Empower (Milford, MA) was employed to extract UV chromatogram peak areas. The peptide hydrophobicity was calculated using the Peptide Synthesis and Proteotypic Peptide Analyzing Tool from ThermoFisher Scientific (Waltham, MA). GraphPad Prism 9.0.2 (San Diego, CA) was used for correlation analysis and p-value calculation.
In order to optimize a method for characterizing peptides for PK studies, sixteen peptides from different mAb molecules, including 13 CDR peptides and three constant region peptides, were selected and synthesized. Information for the synthetic peptide standards, including stock concentration, dilution, hydrophobicity index value, and retention time is shown in Table 1. All synthetic peptide standards were diluted and mixed as a single peptide mixture with a final concentration of 10 fmol/μl using either a DDM solution, formic acid solution (control) or complex HeLa cell lysate digest matrix. PRM acquisition was then used to quantify the peak area of these 16 target peptides and compare results between different samples. Detailed PRM setting information is listed in Table 2 including m/z value and charge states of each target peptide. Each sample was analyzed in triplicate, and average peak areas for each peptide from the DDM prepared samples and matrix prepared samples were compared with the control samples.

Where no end group is shown, it is not given here.

For the substance “LMIYDVSK [synthetic mAb CDR peptide standard]”, the “Ratio of Average Peak Area DDM Diluted/FA Diluted” value stood at 1.1 and the “Ratio of Average Peak Area Matrix Diluted/FA Diluted” value amounted to 1.3.

As to “LSCAASGFTFSNYAMYWVR [synthetic mAb CDR peptide standard]”, the “Ratio of Average Peak Area DDM Diluted/FA Diluted” value was found to be 29.4 and the “Ratio of Average Peak Area Matrix Diluted/FA Diluted” value amounted to 9.2.

Consider “VVSVLTVLHQDWLNGK [synthetic mAb constant region peptide standard]”, for which the “Ratio of Average Peak Area DDM Diluted/FA Diluted” value worked out at 12.1 and the “Ratio of Average Peak Area Matrix Diluted/FA Diluted” value is listed as 33.2.

Take “GLEWVAVISYDGSNK [synthetic mAb CDR peptide standard]”: the “Ratio of Average Peak Area DDM Diluted/FA Diluted” value stood at 10.3 and the “Ratio of Average Peak Area Matrix Diluted/FA Diluted” value came to 4.7.

Turning to “DTAVYYCASGS [synthetic mAb CDR peptide standard]”, the “Ratio of Average Peak Area DDM Diluted/FA Diluted” value is given as 0.9 and the “Ratio of Average Peak Area Matrix Diluted/FA Diluted” value is recorded as 0.6.

For “TNYLKPTHQTNTIIDVVLSPSH [synthetic mAb constant region peptide standard]”, the “Ratio of Average Peak Area DDM Diluted/FA Diluted” value was determined as 18.4 and the “Ratio of Average Peak Area Matrix Diluted/FA Diluted” value amounted to 32.1.

For the substance “DWNQNNWF [synthetic mAb CDR peptide standard]”, the “Ratio of Average Peak Area DDM Diluted/FA Diluted” value came to 2.4 and the “Ratio of Average Peak Area Matrix Diluted/FA Diluted” value is listed as 3.0.

With “DNSLTAPYVFGTGTK [synthetic mAb CDR peptide standard]”, the “Ratio of Average Peak Area DDM Diluted/FA Diluted” value stood at 1.4 and the “Ratio of Average Peak Area Matrix Diluted/FA Diluted” value is on record as 1.1.

As for “VTISCTGSSSNIGTHY [synthetic mAb CDR peptide standard]”, the “Ratio of Average Peak Area DDM Diluted/FA Diluted” value is reported as 1.1 and the “Ratio of Average Peak Area Matrix Diluted/FA Diluted” value turned out to be 1.4.

Turning to “LLIYAASNLETGVPSR (also: Arg16 stable isotope labeled, +10 Da) [synthetic mAb CDR peptide standard]”, the “Ratio of Average Peak Area DDM Diluted/FA Diluted” value worked out at 5.5 and the “Ratio of Average Peak Area Matrix Diluted/FA Diluted” value was determined as 2.7.

With “DIATYYCQQH [synthetic mAb CDR peptide standard]”, the “Ratio of Average Peak Area DDM Diluted/FA Diluted” value was determined as 1.1 and the “Ratio of Average Peak Area Matrix Diluted/FA Diluted” value came to 1.4.

Regarding “NQVSLTCLVK [synthetic mAb constant region peptide standard]”, the “Ratio of Average Peak Area DDM Diluted/FA Diluted” value worked out at 0.7 and the “Ratio of Average Peak Area Matrix Diluted/FA Diluted” value is 1.1.

Turning to “LLIYDASNLK [synthetic mAb CDR peptide standard]”, the “Ratio of Average Peak Area DDM Diluted/FA Diluted” value is on record as 1.2 and the “Ratio of Average Peak Area Matrix Diluted/FA Diluted” value was determined as 1.4.

Regarding “LSCAASGITFSNAWMSWVR [synthetic mAb CDR peptide standard]”, the “Ratio of Average Peak Area DDM Diluted/FA Diluted” value is given as 37.9 and the “Ratio of Average Peak Area Matrix Diluted/FA Diluted” value is 16.9.

Take “TNYLTHR [synthetic mAb CDR peptide standard]”: the “Ratio of Average Peak Area DDM Diluted/FA Diluted” value is 1.7 and the “Ratio of Average Peak Area Matrix Diluted/FA Diluted” value worked out at 0.4.
